Test results taken from paper PMC9135631 (2022).
Residue numbers refer to the chain shown, from its start.

Assays:
[1] = target: T1, Latrophilin-3 ADHD-related variant R465S (Lphn3^R465S) (human)
T1 chain: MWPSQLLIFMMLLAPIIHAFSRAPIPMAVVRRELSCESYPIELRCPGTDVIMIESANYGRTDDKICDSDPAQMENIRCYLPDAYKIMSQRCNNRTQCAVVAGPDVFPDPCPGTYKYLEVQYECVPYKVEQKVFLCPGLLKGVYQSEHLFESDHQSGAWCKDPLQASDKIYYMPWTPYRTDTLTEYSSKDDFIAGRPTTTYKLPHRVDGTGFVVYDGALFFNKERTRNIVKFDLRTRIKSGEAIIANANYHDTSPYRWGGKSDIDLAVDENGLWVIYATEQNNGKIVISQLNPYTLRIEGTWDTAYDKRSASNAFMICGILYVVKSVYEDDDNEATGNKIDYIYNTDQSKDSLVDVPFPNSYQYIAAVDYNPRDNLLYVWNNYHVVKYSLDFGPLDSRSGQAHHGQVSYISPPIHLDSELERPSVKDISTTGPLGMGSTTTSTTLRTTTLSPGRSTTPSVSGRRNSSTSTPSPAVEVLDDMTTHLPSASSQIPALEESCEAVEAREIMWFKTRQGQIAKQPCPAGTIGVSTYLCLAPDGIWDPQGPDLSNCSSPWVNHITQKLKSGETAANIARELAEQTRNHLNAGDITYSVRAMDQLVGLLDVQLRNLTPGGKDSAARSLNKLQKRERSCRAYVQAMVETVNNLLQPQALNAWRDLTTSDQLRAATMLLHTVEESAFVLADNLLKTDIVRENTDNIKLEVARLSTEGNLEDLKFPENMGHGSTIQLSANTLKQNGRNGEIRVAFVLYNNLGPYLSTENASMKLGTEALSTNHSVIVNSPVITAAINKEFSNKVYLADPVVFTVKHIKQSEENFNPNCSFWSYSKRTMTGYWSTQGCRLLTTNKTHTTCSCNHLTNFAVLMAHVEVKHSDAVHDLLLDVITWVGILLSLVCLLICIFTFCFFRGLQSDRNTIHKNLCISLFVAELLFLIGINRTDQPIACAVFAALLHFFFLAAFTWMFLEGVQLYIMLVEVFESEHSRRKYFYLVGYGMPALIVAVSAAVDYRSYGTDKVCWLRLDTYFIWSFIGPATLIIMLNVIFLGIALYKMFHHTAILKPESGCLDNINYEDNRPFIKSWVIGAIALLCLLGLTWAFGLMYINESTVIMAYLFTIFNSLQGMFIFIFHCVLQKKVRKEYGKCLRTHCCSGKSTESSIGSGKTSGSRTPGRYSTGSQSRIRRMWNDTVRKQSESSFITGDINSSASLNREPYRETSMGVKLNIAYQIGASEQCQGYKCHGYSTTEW

[2] = target: T2, Latrophilin-3 ADHD-related variant A247S (Lphn3^A247S) (human)
T2 chain: T1 chain with A247S, S465R

- Kd [1]: 1.02 nM
- Kd [2]: 1.22 nM
B1: soluble FLRT3 extracellular domain fused to the constant fraction of human IgG (FLRT3^ECD-Fc) (Fc fusion)
chain: KSCPSVCRCDAGFIYCNDRFLTSIPTGIPEDATTLYLQNNQINNAGIPSDLKNLLKVERIYLYHNSLDEFPTNLPKYVKELHLQENNIRTITYDSLSKIPYLEELHLDDNSVSAVSIEEGAFRDSNYLRLLFLSRNHLSTIPWGLPRTIEELRLDDNRISTISSPSLQGLTSLKRLVLDGNLLNNHGLGDKVFFNLVNLTELSLVRNSLTAAPVNLPGTNLRKLYLQDNHINRVPPNAFSYLRQLYRLDMSNNNLSNLPQGIFDDLDNITQLILRNNPWYCGCKMKWVRDWLQSLPVKVNVRGLMCQAPEKVRGMAIKDLNAELFDCKDSGIVSTIQITTAIPNTVYPAQGQWPAPVTKQPDIKNPKLTKDHQTTGSPSRKTITITVKSVTSDTIHISWKLALPMTALRLSWLKLGHSPAFGSITETIVTGERSEYLVTALEPDSPYKVCMVPMETSNLYLFDETPVCIETETAPLRMYNPTTTLNREQEKEPYKNPNLP
modifications: HA/Flag epitopes left out; isoform assumed; signal peptide removed and GPS autoproteolysis expected
